We go through 4 molecules from paper PMC8166090, “Improvements of the productivity and saccharification efficiency of the cellulolytic β-glucosidase D2-BGL in Pichia pastoris via directed evolution” (Biotechnology for Biofuels, 2021).

Where a chain is given by its changes, count along the chain named. Names may count otherwise.

By Km is commonly meant the substrate concentration at which the rate is half of its maximum. A word on the Vmax: it is the rate approached at saturating substrate.

The target of data set [1] is T1, D2-BGL (WT D2; Pp D2-BGL) (Chaetomella raphigera, UniProt A0A068FT77, D224G/F256M/Y260D).
T1 construct: 722 residues, 76 kDa theoretical; alpha-mating factor secretion signal upstream (pGAPZalphaC-D2); expressed in Pichia pastoris SMD 1168; glycosylated
T1 sequence (A0A068FT77 entry or part of it D224G/F256M/Y260D): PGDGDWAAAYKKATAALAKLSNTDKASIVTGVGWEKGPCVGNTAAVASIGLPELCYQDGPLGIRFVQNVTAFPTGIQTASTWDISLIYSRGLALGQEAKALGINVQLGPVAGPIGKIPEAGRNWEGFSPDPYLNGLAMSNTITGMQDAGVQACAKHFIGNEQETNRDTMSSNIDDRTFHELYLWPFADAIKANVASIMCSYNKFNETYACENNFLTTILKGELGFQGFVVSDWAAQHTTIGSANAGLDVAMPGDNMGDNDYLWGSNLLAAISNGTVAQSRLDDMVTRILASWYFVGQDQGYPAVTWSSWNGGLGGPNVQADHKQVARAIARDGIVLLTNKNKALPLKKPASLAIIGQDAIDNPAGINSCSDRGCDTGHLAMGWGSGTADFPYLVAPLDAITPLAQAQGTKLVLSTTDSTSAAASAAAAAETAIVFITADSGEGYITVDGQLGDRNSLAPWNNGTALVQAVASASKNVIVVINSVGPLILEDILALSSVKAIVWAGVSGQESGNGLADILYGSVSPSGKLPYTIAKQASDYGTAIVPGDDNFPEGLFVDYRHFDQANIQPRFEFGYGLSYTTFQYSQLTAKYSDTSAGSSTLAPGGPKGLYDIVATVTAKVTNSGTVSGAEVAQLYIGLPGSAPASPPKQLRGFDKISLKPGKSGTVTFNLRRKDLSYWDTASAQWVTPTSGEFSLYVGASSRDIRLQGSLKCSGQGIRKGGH
Nature of the data set: p-nitrophenol release at […] nm, […] pNPG, substrate inhibition fit. In kind it is biochemical. The note with it: 50 mM NaOAc pH 5, 55 °C.

The target of data set [2] is T2, D2-BGL (WT D2; Pp D2-BGL) (Chaetomella raphigera, UniProt A0A068FT77).
T2 construct: 722 residues, 76 kDa theoretical; alpha-mating factor secretion signal upstream (pGAPZalphaC-D2); expressed in Pichia pastoris SMD 1168; glycosylated
T2 sequence (A0A068FT77 1-722): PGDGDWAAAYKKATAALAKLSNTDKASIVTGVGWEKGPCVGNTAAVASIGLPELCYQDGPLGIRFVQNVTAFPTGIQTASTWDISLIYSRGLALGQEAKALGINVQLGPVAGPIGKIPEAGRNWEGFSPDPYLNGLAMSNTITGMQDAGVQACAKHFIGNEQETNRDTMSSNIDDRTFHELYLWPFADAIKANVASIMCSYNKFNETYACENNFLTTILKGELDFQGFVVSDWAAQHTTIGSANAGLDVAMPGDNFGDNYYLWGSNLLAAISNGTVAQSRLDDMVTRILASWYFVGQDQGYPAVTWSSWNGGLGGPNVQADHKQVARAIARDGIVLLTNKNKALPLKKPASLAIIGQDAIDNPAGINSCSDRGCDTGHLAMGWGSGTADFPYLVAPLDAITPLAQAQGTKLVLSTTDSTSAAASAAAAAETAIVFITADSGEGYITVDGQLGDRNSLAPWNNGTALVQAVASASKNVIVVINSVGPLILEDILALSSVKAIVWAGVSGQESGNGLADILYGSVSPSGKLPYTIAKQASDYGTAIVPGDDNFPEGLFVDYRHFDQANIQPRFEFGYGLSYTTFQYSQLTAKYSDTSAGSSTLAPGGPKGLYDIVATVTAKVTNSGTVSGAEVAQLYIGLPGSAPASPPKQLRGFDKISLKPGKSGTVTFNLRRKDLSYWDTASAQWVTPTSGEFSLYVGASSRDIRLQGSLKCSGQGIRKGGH
Nature of the data set: inhibition of pNPG hydrolysis with […] glucose. In kind it is biochemical. The note with it: pNPG as substrate; 50 mM NaOAc pH 5, 55 °C; product inhibition.

Data set [3] has as its target T1, D2-BGL (WT D2; Pp D2-BGL). Nature of the data set: inhibition of pNPG hydrolysis with […] glucose. In kind it is biochemical. The note with it: pNPG as substrate; 50 mM NaOAc pH 5, 55 °C; product inhibition; read-out: Mut M.
Substrate in the data set “purified protein”: O=[N+]([O-])c1ccc(O[C@@H]2O[C@H](CO)[C@@H](O)[C@H](O)[C@H]2O)cc1
Description: purified protein. The note with it: 50 mM NaOAc pH 5, 55 °C.

Consider `O=[N+]([O-])c1ccc(O[C@@H]2O[C@H](CO)[C@@H](O)[C@H](O)[C@H]2O)cc1` [pNPG, p-nitrophenyl β-D-glucopyranoside], for which the “kinetic constant from substrate inhibition fit” value in data set [1] came to 3.21 ± 0.56 mM.
Consider `OC[C@H]1OC(O)[C@H](O)[C@@H](O)[C@@H]1O` (stereo partly shown) [glucose], for which the Ki is 3230 ± 1080 µM in data set [2] and 1590 ± 70 µM in data set [3].

B1: D2-BGL (WT D2; Pp D2-BGL) (Chaetomella raphigera) (protein)
chain: T2 sequence (A0A068FT77 1-722)
As to B1, in the data set “purified protein”, the Km worked out at 310 ± 140 µM and the maximal velocity (Vmax) is 575 µM/min.

B2: D2-BGL (WT D2; Pp D2-BGL) (Chaetomella raphigera; D224G/F256M/Y260D) (protein)
chain: T2 sequence (A0A068FT77 1-722) with D224G, F256M, Y260D
Consider B2, for which, in “purified protein”, the Km was determined as 180 ± 50 µM and the Vmax worked out at 374 µM/min.
